Laboratory results published in IntAct's records for PubMed 17003112.

B1: Nuclear factor NF-kappa-B p105 subunit (Homo sapiens), P19838 (parent)
chain: MAEDDPYLGRPEQMFHLDPSLTHTIFNPEVFQPQMALPTDGPYLQILEQPKQRGFRFRYVCEGPSHGGLPGASSEKNKKSYPQVKICNYVGPAKVIVQLVTNGKNIHLHAHSLVGKHCEDGICTVTAGPKDMVVGFANLGILHVTKKKVFETLEARMTEACIRGYNPGLLVHPDLAYLQAEGGGDRQLGDREKELIRQAALQQTKEMDLSVVRLMFTAFLPDSTGSFTRRLEPVVSDAIYDSKAPNASNLKIVRMDRTAGCVTGGEEIYLLCDKVQKDDIQIRFYEEEENGGVWEGFGDFSPTDVHRQFAIVFKTPKYKDINITKPASVFVQLRRKSDLETSEPKPFLYYPEIKDKEEVQRKRQKLMPNFSDSFGGGSGAGAGGGGMFGSGGGGGGTGSTGPGYSFPHYGFPTYGGITFHPGTTKSNAGMKHGTMDTESKKDPEGCDKSDDKNTVNLFGKVIETTEQDQEPSEATVGNGEVTLTYATGTKEESAGVQDNLFLEKAMQLAKRHANALFDYAVTGDVKMLLAVQRHLTAVQDENGDSVLHLAIIHLHSQLVRDLLEVTSGLISDDIINMRNDLYQTPLHLAVITKQEDVVEDLLRAGADLSLLDRLGNSVLHLAAKEGHDKVLSILLKHKKAALLLDHPNGDGLNAIHLAMMSNSLPCLLLLVAAGADVNAQEQKSGRTALHLAVEHDNISLAGCLLLEGDAHVDSTTYDGTTPLHIAAGRGSTRLAALLKAAGADPLVENFEPLYDLDDSWENAGEDEGVVPGTTPLDMATSWQVFDILNGKPYEPEFTSDDLLAQGDMKQLAEDVKLQLYKLLEIPDPDKNWATLAQKLGLGILNNAFRLSPAPSKTLMDNYEVSGGTVRELVEALRQMGYTEAIEVIQAASSPVKTTSQAHSLPLSPASTRQQIDELRDSDSVCDSGVETSFRKLSFTESLTSGASLLTLNKMPHDYGQEGPLEGKI

Variants of: B1
Conditions: with hif1n_human HIF1AN

effect of a mutation on the interaction	Variant
disrupting interaction strength	N678A
